Measurements reported in the domain aggregation screens of Martell et al. (2025).

Assay: soluble fraction after stress (log2 fold change); higher = more stays soluble; pooled small domains, quantitative proteomics
Conditions: stress: 75 degC
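Note: 20 min heating vs room temperature control held 20 min.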

Sequence	soluble fraction (log2)
HMFSDDEINRLKARDSILVNLRDSEKQVWELYTDGKTVQNIANQLNKHKQSISATIINIKNKISRKQNMLK	-0.709
HMFSGVQLGQAISEAIKRKNVSQKEVADHFGVKQPSVSGWIKNGRIDKKHLDKLIDYFSDVVTPSHFGIE	0.27
HMFSQDQIFLRSGEKIDARVIEVTPEFIKYKSKANPEGPLYSKKITDVLLITYANGTTEVYE	-0.764
HMFTDAEIKQFAAAAVEVTKIQQDSTISAADKQPKMLAVVQSSGLPPEKFNQIGQAAAADPALQQRIQA	0.038
HMFTEPQKLVKRILNMLGHRYDDASIQARSDFQASNNYHKVQVKKKRESMEEYTAWLEEMYDAYRIN	-1.49
HMFTFEDMDKFESLLTTGLTDVQRRIYSLVTHDGKEYDLIAETLGISVEAVRMHMSRARKKIRENYKKID	-3.38
HMFTIGENIRDLRLERAITQEQLAEQLNVSAPAVSKWERGEAYPDITLVPKLAEILGVSTDKLFGVD	0.0273
HMFTKYSPDFKLSVILDMRKNNLGYGEVVRKYWNLDSYKESDRHRSQVRLWERIFLEEGVEGFM	-4.63
HMFTLDDLQATYDIFERAEQNSDAMLAFQKVITAEGLDFDLTSPQGIVDFFKGAAPTEIYDLYEAS	-0.547
HMFTNSTSSRQLTNSDDTLRLNISSQTRQMLPNGQPFGGSLSGKLLLVIYGATTRSIPAQTTPEKIVV	-0.198
HMFTSVDVAPDLRTAKVFYSVLGRKKSDKEINIAINQKRKAFKKFMGPELHLKNIPDLHFYYD	-0.369
HMFTYDLSERELTIIELVAKGLNNKELADTLFLSEGTIRNYLSTLLNKLDLRDRTQLAIFYYQHL	-2.16
HMFVEEGSLKKITFDTYEFNITDNLKSLRVTYQGLLPNLFREGQGVVIEGILLEQNYIQANTVF	0.249
HMFVTGTTIKKLREEKRMTQGELAQMIGVSDKAVSKWETGRGLPDISLLEPLSRALGISVAELFAGQH	-0.612
HMFWEGYLAARREQFLKDQQVLLGNEFRSNPDFWLEVASKEWAVVEERLSTGADVSEEVQETMGLDF	-2.13
HMFYNSSDNAYKILEINKSATVDEIKAAYRKMAKKYHPDKVIHLGQEHQKGAEEKFRQVQEAYEELQKERG	0.19
HMGAAVEVISLRYRSAAELLPIVRSLLSTEGKISADERTNSLIIVDSDEAVARVIHSLATLDT	-1.3
HMGADGIPGKNGENGETSYVHFAYATSADGKTGFSTTDTVGKTYMGQYADFEKADSEDPTKYRWGKFQGP	0.0581
HMGAFAIHTASELSAGMRIRHERFGPGVITGIDTANPASGARIQVDFDNGTSKTLLLSYAKFQI	-2.53
HMGAGKVVDGVTYDFVFDVDVADGQPPLRLPYNRGEDVYQAAERFILRNELPATYREQIVNFIVQNTPG	-0.116
HMGAISGEQREFYTVFRGHLNSHVGEFKVEDIENLLMKAKTEVPDLLEEEFLKMGEAILNRYRN	0.0818
HMGAKEHLAGETLRMAVELLSEKQGIPAEQALIRFISSPVYDALYDLDTGMWTQGPTRLLEAFEALE	-2.01
HMGALARLLASVEQELGVTRDRMTRTQKQEAVTLLNEWGAFTLRKSVEDVAEALGVSRFTVYNYLERAEA	-2.99
HMGALSLDMLFDRFDALQEQSMGDKTEGGQELRGMIRTFIEQEKLDIRVTRTTTNAALLEMIEKEMQG	-0.717
HMGASALTEREREVLRLLEGGGSDKRIARQLAISEHGVRYHLKSIYKKLGVHDRVSAIAAGRRLAS	-1.37
HMGASTQLVEIKNAYENGEWQNVIDLAGKLHEKYNGSEEDKEAQEMAKNSQSKLDEAAAAKAAEEA	0.0816

Sequence	soluble fraction (log2)
HMGASYSQFLDQVDSGNVQKVAFGGDMRGGTSQLTYTTRGGQSSTITAPFDRDLINVLRTKNVEIVQEEP	0.236
HMGATFITSSKDNAINIRQAAGTDSKVIETIKNGHILESSEKSGEWYKVTYYDSDIKKTFTGYIHNSQLK	0.376
HMGAVQFAEQKIHIGSRWIGKKISEFSAESDAFVILIKRGSEVVIPRGPTDIVENDVLVIHVPD	-3.05
HMGAVVSPMPGVILDIKVKEGDSVSEGQTVIILEAMKMENEIVSEFTGTVSAIRVKKGDTVDTDAVLVEI	-1.76
HMGAYPENSLLKERGQSAVYLIQENRKRLFFNAEAFLINGYNWKDIQVVDDLSKILTGKVIYAK	-2.83
HMGDAATVFRDHYNINSAAQAQAALDRKEALWEQPNPWRDSDNREVFDWAAQTVKDRFDSGKYKPK	0.626
HMGDDVRKNILDVLSKFERVDITDLDSLELVRFYLEIEDIFDIEIKENDFYRLKSVDSIVDYIRNKSFF	-1.31
HMGDIQFMEYRINHSSGWIGKNISDFAAVSKNLVILIKRGQDVVIPRGPTAIMEDDVLVLHA	-1.88
HMGDITALMPGKVIQIIVKEGQEIKVGDPLIVIESMKMENTISSEVNGTIKSINIQIDDNVQFDQVLFTV	-2.54
HMGDITIPDLQGMSFDQAREKLKALGLSIGKISYTSDTSKDDGVVISQGLQAGGKASKGATVDITINET	0.332
HMGDLEEAVKDFSEAIRLNDSWAEAYANRAVVYAEQGDAAQSDQDAEKARLLGVDQNRLNEMLNAVNS	0.294
HMGDLKALMPGKVTQVLVSGGQKVKVGEPVLLMESMKMEQTIVATKDGDISEILVSEGDTVEVGKIMIKI	-0.00398
HMGDLTVPDLSGLTVDQAKQRLKDMGLVLGKITTQEDSSKPDGVIISQSPSADGKINKGQLVDVVVNKLS	0.034
HMGDTHKVPGVKGVNVEQAMDMLSRLDLKAVVIDSVYVKDKKLGTVIEQNPVEGSVVKPGRPIYLVVNSRS	0.352
HMGDTISVPAVRTLAYNKAMDILNAEGLKGIVADSVYDNHTAPGTVIEQNPKAGTIVKEGREVFLTIHA	0.117
HMGDWITGTVTRIADNGWGTFQPENAHNTVSIPPKMVADNQLKEADSIKIIAEPSPDGTKTFIKAISRE	0.113
HMGEDSEPVQVPDVTGQPLWEARRTLSSMGLKVLDDGGSGSVTAQMPSAGATLRNGGQMMLYTYDEALPE	0.126
HMGEEIRTWTDAQGRKIEARMSMLDGDQVLLELKDGRKIPYPLAKLSADDAHYARHFASASASD	-0.0336
HMGEFVQLKNRTGSVIEAKILNYQNGKVKLQRKDGVIFVVPISIFDRMSSSIIENKAKEMDSF	-0.263
HMGEIHAQIPGLVSHLFVKEGNTVQVEQKLFILEAMKMENEIDSPIQGTVKRIHIATGSKVEKGDLIMEIS	-1.47
HMGEKFTFGQIAKAKAYAKTYANDMTSAVKNIEAIATGLSKHPEVADTLKKANENQELNRITKLAG	-0.0289
HMGEKPTEITLSNAISVQELAEKLYVSETDIIRTLFLDGIIVNINQVLDLETAVKVGDQLGVTITIVE	-1.33
HMGEKTVPNVIGQKLATAKQLLEKEGLTVGSTSYNKNQADKDTVLSTDPAPGSHLSEGAKVNLTLSSGA	0.0786
HMGEKVIAVSGGFDPIHVGHLRMMQDAAQHGRLVVIVNSDEWLLKKKGYVFMPWEERAELIGAYDFVDE	-0.964
HMGELDPKIIAQINTFLQGITKLIEHPGNKDAKKTALGALHKLTFDQNITANFGKQLGQLDQVIQSSEET	0.0337
HMGELGPGSRGQAVRALQERLMALGFPLARFGADGIFGRETTGALRAFQHVAGLSPTGLGDHETLKWLGII	-1.33

Sequence	soluble fraction (log2)
HMGELTNALATLSERERDVARLVAQGLDNRQIAAQLFLSEGTVRNRISDILDKLALTNRTQLAIAWLHAE	-1.4
HMGEPTLTIRVVSYNPQSGEMVVVARDPLSGRYALATLNVRTGAGQMIGPQGELLPIENFALGS	-1.65
HMGEQVAVPDVTKKSVREVNNILTSAGLRLQIEGSGISVRQDPPADTMVAPDTVVTVSFEPP	0.118
HMGEQVFSRKDLAINGNDLKAVFGWPPGPKYREALDQLFHWVLEDPARNRRETLLAYLHSLYD	-0.136
HMGESEKTLELVSQKDALVDEAFFFVRFQALLESNKTKGAQDLLDQSNHLSAAKLLQANAYLDIV	0.44
HMGESFEELAREISDDTGSKTEGGETGLFPRGVMAPQFEEAAFLLKVGDISEPIRTKFGYHIIKLKEIKP	-0.0117
HMGESVVVPDLRGKTLEEARAILKKVDLDYEINDSTYSKTAVPGTIRDIVPAPGSHVKAGRILFVSING	-0.553
HMGETISVPAVRSLAYDRAVDMLTAEGLKGIVADSVYDNRTQPGTVIEQNPKAGTIVKEGREVYLTINA	0.275
HMGFAPEAAREEVAQLIGQRGRAVTVLRPSGQVEIAGRRFEATVEVGAVDAGDTIVVRGQTAFALLVEKAD	-0.292
HMGFKLQRYTTFVVERLKKYQDTPAAQMHDLLKEHYPDFPAVSPKTVYNYVMKIRQEHGLPAV	-4.26
HMGFSERLAQAMSHAGYTQGGLAKAVGMAQSSVNKLLNNANSSRKTVEIASVLGVRPEWLSTGEGDML	-0.092
HMGFSKGKRDLIRMIKLAIRELADDNGRAQIEDVITRLVQEGHSRDEIRLQIDMFLRQGEAMEPKQGIIKL	-1.08
HMGFSLEQFGTDPDLKKIVENAFERIITASEGRIFKSDFSSNNSALPLEIFSFLIAVILLKLSGMN	-0.157
HMGFVATRSRKFLPFSEARAITRGLGFSNQKDYKEWIKGNGNELLLPFNPWRTYGDSGWKGWKDFLGTDKA	-1.39
HMGFYDLFINLADKVGSLADVTQILAEARINLVNVHILEIREEIDGIAQLTFSSEKDRQKALELLKTKYK	-1.87
HMGGDFVEHLKDLASEAPVIRLVNTIIGRVIDLRASDIHLEPFDDGLHVRYRVDGVIHPGELVPPRLS	0.0444
HMGGEGQIEIREREGIPAEAWVDGVMRGQTPLRVEHVSIGTRRVELRAEGRPPVAADVLVRPTVTALVELS	0.263
HMGGEHPIPEDWAVNEANYEHGAKFYGYTRAHVDAEAQAFRDQYAANGKKYVDWDAHFRTFMRWQNERRYG	-0.0635
HMGGEPVSARVPDTLHGARLDATAAALFPDFSRSRLAEWIKAGRLRRNDQPAKPRDKVAVDDHLLLIPEY	0.0937
HMGGFSVTAEAFDGTPEVGKTVGFTAGSTKIKVEDTKGDATFGTILEKETVGFGEGKYTYFYIGL	-0.428
HMGGKAITGGEGEIIIRADKAETVAIYGIDGRLVHRVSTEAGDTKRVSVPAGIYIVKGAKVVV	0.179
HMGGKTAVVTGSLVNVRKGPGTGNALVGQVARGDELPVLGQDGDWYQIKLANGSNGWVAGWLVSLKDAVP	0.334
HMGGLIDQSIQEIIDKYSVPGKKIQKAQRLKIVAEMHTKGIFKMRGGVQQAAQALGVTRYTVYNDLEVMN	-3.08
HMGGLLSVIQKKAINNVKDRYSENAIKSMTKVQLHDLIKAETSRLLDPANAKETPEYQAFLEE	-0.0634
